# Earlier results as cited in article PMC5764468.
# Biological target: calmodulin (Homo sapiens) (UniProt P0DP23)
substance,measurement,value
CyaA AC domain AC (from UniProt P0DKX7),Kd,< 0.1 nM
